T1: human CD52 on human T-cell lymphoma HUT-78 cells (human, UniProt P31358 25-36)
T1 construct: whole, on cells; also called CAMPATH-1 antigen; CD52 positive lymphoma cells
T1 chain (looked up): GQNDTSQTSSPS


What was measured:
[1] = target: target antigen of mab 231 on canine lymphoma cells (canine); assay: FACS on canine lymphoma cells positive for the mab 231 antigen, FITC anti-dog IgG secondary
[2] = target: T1, human CD52 on human T-cell lymphoma …; assay: FACS on HUT-78 cells, about 2 ug primary antibody, FITC goat anti-dog IgG secondary
Experimental: The binding of the antibody variants of the present invention was assessed using a fluorescence-activated cell sorter (FACS). In the present example, the antibody variants were incubated with the CD52 positive cells and the amount of bound antibody was assessed following incubation with a fluorescent-labeled reporter reagent. The reporter was thereafter measured by FACS.
Briefly, for each assay, one million cells of the human T-cell lymphoma HUT-78 cells were resuspended in FACS buffer (PBS+2% FBS). About 2 ug of the primary antibody were added to the cells and the samples were incubated at 4° C. for 1 hour. The primary antibody was provided as supernatants from transfected cells with recombinant antibody constructs or from purified antibody preparation. The rat anti-human CD52 mAb (Serotec) was added to the cells as a control. One ml of FACS buffer was added and cells were spin down for 3 min at 800×g in Eppendorf microcentrifuge. The cells were washed with 1 ml FACS buffer and spin down again. The secondary antibodies such as fluorescein-isothiocynate (FITC) conjugated goat anti-rat (Jackson ImmunoResearch), or the FITC-conjugated goat anti-dog IgG (H+L) (Bethyl Laboratories) were added in 100 μl of FACS buffer supplemented with 1% BSA to appropriate tubes and the tubes were incubated at 4° C. for 30 minutes. The wash steps were repeated. The cells were then resuspended in 500 μl FACS buffer and transferred into 12×75 mm polystyrene test tubes. The cells were analyzed by FACS with a FacScan cytometer using the CellQuest software (Becton-Dickenson). Several controls were utilized to determine the background fluorescence: (i) one tube of cells was incubated with the FITC-conjugated secondary antibody without the primary antibody, (ii) one tube of cells was incubated with PBS only, and (iii) one tube was incubated with the primary antibody without the FITC-conjugated secondary antibody.

| Binder | Binding (%) [1] [%] | Binding (%) [2] [%] |
| --- | --- | --- |
| VET106 VET217 anti-canine lymphoma antibody variant (mab 231 variable domains, canine lambda constant) (antibody) light: DIQMNQSPSSLSASLGDTITITCHASQNINVWLSWYQQKPGNIPKLLIYKASNLHTGVPSRFSGSGSGTGFTLTISSLQPEDIATYYCQQGQSYPLTFGGGTKLEIKGQPKASPSVTLFPPSSEELGANKATLVCLISDFYPSGVTVAWKADGSPITQGVETTKPSKQSNNKYAASSYLSLTPDKWKSHSSFSCLVTHEGSTVEKKVAPAECS heavy: EVKLVESGGGLVQPGGSLKLSCATSGFTFSDYYMYWVRQTPEKRLEWVAYISNGGGSTYYPDTVKGRFTISRDNAKNTLYLQMSRLKSEDTAMYYCARHGGYYAMDYWGQGTLVTVSSASTTAPSVFPLAPSCGSTSGSTVALACLVSGYFPEPVTVSWNSGSLTSGVHTFPSVLQSSGLYSLSSMVTVPSSRWPSETFTCNVAHPASKTKVDKPVPKRENGRVPRPPDCPKCPAPEMLGGPSVFIFPPKPKDTLLIARTPEVTCVVVDLDPEDPEVQISWFVDGKQMQTAKTQPREEQFNGTYRVVSVLPIGHQDWLKGKQFTCKVNNKALPSPIERTISKARGQAHQPSVYVLPPSREELSKNTVSLTCLIKDFFPPDIDVEWQSNGQQEPESKYRTTPPQLDEDGSYFLYSKLSVDKSRWQRGDTFICAVMHEALHNHYTQKSLSHSPGK | 30.3 | – |
| VET107 VET217 anti-canine lymphoma antibody variant (mab 231 variable domains, canine kappa constant) (antibody) light: DIQMNQSPSSLSASLGDTITITCHASQNINVWLSWYQQKPGNIPKLLIYKASNLHTGVPSRFSGSGSGTGFTLTISSLQPEDIATYYCQQGQSYPLTFGGGTKLEIKNDAQPAVYLFQPSPDQLHTGSASVVCLLNSFYPKDINVKWKVDGVIQDTGIQESVTEQDKDSTYSLSSTLTMSSTEYLSHELYSCEITHKSLPSTLIKSFQRSECQRVD heavy: EVKLVESGGGLVQPGGSLKLSCATSGFTFSDYYMYWVRQTPEKRLEWVAYISNGGGSTYYPDTVKGRFTISRDNAKNTLYLQMSRLKSEDTAMYYCARHGGYYAMDYWGQGTLVTVSSASTTAPSVFPLAPSCGSTSGSTVALACLVSGYFPEPVTVSWNSGSLTSGVHTFPSVLQSSGLYSLSSMVTVPSSRWPSETFTCNVAHPASKTKVDKPVPKRENGRVPRPPDCPKCPAPEMLGGPSVFIFPPKPKDTLLIARTPEVTCVVVDLDPEDPEVQISWFVDGKQMQTAKTQPREEQFNGTYRVVSVLPIGHQDWLKGKQFTCKVNNKALPSPIERTISKARGQAHQPSVYVLPPSREELSKNTVSLTCLIKDFFPPDIDVEWQSNGQQEPESKYRTTPPQLDEDGSYFLYSKLSVDKSRWQRGDTFICAVMHEALHNHYTQKSLSHSPGK | 20.8 | – |
| VET114 VET224 antibody variant (anti-CD52, canine FR4 in both chains) (antibody, Constant domains are added as separate pieces because the printed entries are variable domains only) light: DIKMTQSPSFLSASVGDRVTLNCKASQNIDKYLNWYQQKLGESPKLLIYNTNNLQTGIPSRFSGSGSGTDFTLTISSLQPEDVATYFCLQHISRPRTFGGGTHLTVLGQPKASPSVTLFPPSSEELGANKATLVCLISDFYPSGVTVAWKADGSPITQGVETTKPSKQSNNKYAASSYLSLTPDKWKSHSSFSCLVTHEGSTVEKKVAPAECS heavy: EVKLLESGGGLVQPGGSMRLSCAGSGFTFTDFYMNWIRQPAGKAPEWLGFIRDKAKGYTTEYNPSVKGRFTISRDNTQNMLYLQMNTLRAEDTATYYCAREGHTAAPFDYWGQGTLVTVSSASTTAPSVFPLAPSCGSTSGSTVALACLVSGYFPEPVTVSWNSGSLTSGVHTFPSVLQSSGLYSLSSMVTVPSSRWPSETFTCNVAHPASKTKVDKPVPKRENGRVPRPPDCPKCPAPEMLGGPSVFIFPPKPKDTLLIARTPEVTCVVVDLDPEDPEVQISWFVDGKQMQTAKTQPREEQFNGTYRVVSVLPIGHQDWLKGKQFTCKVNNKALPSPIERTISKARGQAHQPSVYVLPPSREELSKNTVSLTCLIKDFFPPDIDVEWQSNGQQEPESKYRTTPPQLDEDGSYFLYSKLSVDKSRWQRGDTFICAVMHEALHNHYTQKSLSHSPGK | – | 47.8 |
| VET112 VET223 antibody variant (anti-CD52, canine FR1 and FR4 in both chains) (antibody, Constant domains are added as separate pieces because the printed entries are variable domains only) light: QSVLTQPASVSGSLGQRVTISCKASQNIDKYLNWYQQKLGESPKLLIYNTNNLQTGIPSRFSGSGSGTDFTLTISSLQPEDVATYFCLQHISRPRTFGGGTHLTVGQPKASPSVTLFPPSSEELGANKATLVCLISDFYPSGVTVAWKADGSPITQGVETTKPSKQSNNKYAASSYLSLTPDKWKSHSSFSCLVTHEGSTVEKKVAPAECS heavy: EVQLVESGGDLVKPGGSLRLSCAGSGFTFTDFYMNWIRQPAGKAPEWLGFIRDKAKGYTTEYNPSVKGRFTISRDNTQNMLYLQMNTLRAEDTATYYCAREGHTAAPFDYWGQGTLVTVSSASTTAPSVFPLAPSCGSTSGSTVALACLVSGYFPEPVTVSWNSGSLTSGVHTFPSVLQSSGLYSLSSMVTVPSSRWPSETFTCNVAHPASKTKVDKPVPKRENGRVPRPPDCPKCPAPEMLGGPSVFIFPPKPKDTLLIARTPEVTCVVVDLDPEDPEVQISWFVDGKQMQTAKTQPREEQFNGTYRVVSVLPIGHQDWLKGKQFTCKVNNKALPSPIERTISKARGQAHQPSVYVLPPSREELSKNTVSLTCLIKDFFPPDIDVEWQSNGQQEPESKYRTTPPQLDEDGSYFLYSKLSVDKSRWQRGDTFICAVMHEALHNHYTQKSLSHSPGK | – | 24.4 |
| VET112 VET224 antibody variant (anti-CD52) (antibody, Constant domains are added as separate pieces because the printed entries are variable domains only) light: QSVLTQPASVSGSLGQRVTISCKASQNIDKYLNWYQQKLGESPKLLIYNTNNLQTGIPSRFSGSGSGTDFTLTISSLQPEDVATYFCLQHISRPRTFGGGTHLTVGQPKASPSVTLFPPSSEELGANKATLVCLISDFYPSGVTVAWKADGSPITQGVETTKPSKQSNNKYAASSYLSLTPDKWKSHSSFSCLVTHEGSTVEKKVAPAECS heavy: EVKLLESGGGLVQPGGSMRLSCAGSGFTFTDFYMNWIRQPAGKAPEWLGFIRDKAKGYTTEYNPSVKGRFTISRDNTQNMLYLQMNTLRAEDTATYYCAREGHTAAPFDYWGQGTLVTVSSASTTAPSVFPLAPSCGSTSGSTVALACLVSGYFPEPVTVSWNSGSLTSGVHTFPSVLQSSGLYSLSSMVTVPSSRWPSETFTCNVAHPASKTKVDKPVPKRENGRVPRPPDCPKCPAPEMLGGPSVFIFPPKPKDTLLIARTPEVTCVVVDLDPEDPEVQISWFVDGKQMQTAKTQPREEQFNGTYRVVSVLPIGHQDWLKGKQFTCKVNNKALPSPIERTISKARGQAHQPSVYVLPPSREELSKNTVSLTCLIKDFFPPDIDVEWQSNGQQEPESKYRTTPPQLDEDGSYFLYSKLSVDKSRWQRGDTFICAVMHEALHNHYTQKSLSHSPGK | – | 30.6 |
| VET111 VET222 chimeric antibody (rat anti-human CD52 variable domains on canine constant domains) (antibody, Expressed in 293F cells and used as supernatant or protein A purified) light: DIKMTQSPSFLSASVGDRVTLNCKASQNIDKYLNWYQQKLGESPKLLIYNTNNLQTGIPSRFSGSGSGTDFTLTISSLQPEDVATYFCLQHISRPRTFGTGTKLELKGQPKASPSVTLFPPSSEELGANKATLVCLISDFYPSGVTVAWKADGSPITQGVETTKPSKQSNNKYAASSYLSLTPDKWKSHSSFSCLVTHEGSTVEKKVAPAECS heavy: EVKLLESGGGLVQPGGSMRLSCAGSGFTFTDFYMNWIRQPAGKAPEWLGFIRDKAKGYTTEYNPSVKGRFTISRDNTQNMLYLQMNTLRAEDTATYYCAREGHTAAPFDYWGQGVMVTVSSASTTAPSVFPLAPSCGSTSGSTVALACLVSGYFPEPVTVSWNSGSLTSGVHTFPSVLQSSGLYSLSSMVTVPSSRWPSETFTCNVAHPASKTKVDKPVPKRENGRVPRPPDCPKCPAPEMLGGPSVFIFPPKPKDTLLIARTPEVTCVVVDLDPEDPEVQISWFVDGKQMQTAKTQPREEQFNGTYRVVSVLPIGHQDWLKGKQFTCKVNNKALPSPIERTISKARGQAHQPSVYVLPPSREELSKNTVSLTCLIKDFFPPDIDVEWQSNGQQEPESKYRTTPPQLDEDGSYFLYSKLSVDKSRWQRGDTFICAVMHEALHNHYTQKSLSHSPGK | – | 51.4 |
| VET114 VET223 antibody variant (anti-CD52) (antibody, Constant domains are added as separate pieces because the printed entries are variable domains only) light: DIKMTQSPSFLSASVGDRVTLNCKASQNIDKYLNWYQQKLGESPKLLIYNTNNLQTGIPSRFSGSGSGTDFTLTISSLQPEDVATYFCLQHISRPRTFGGGTHLTVLGQPKASPSVTLFPPSSEELGANKATLVCLISDFYPSGVTVAWKADGSPITQGVETTKPSKQSNNKYAASSYLSLTPDKWKSHSSFSCLVTHEGSTVEKKVAPAECS heavy: EVQLVESGGDLVKPGGSLRLSCAGSGFTFTDFYMNWIRQPAGKAPEWLGFIRDKAKGYTTEYNPSVKGRFTISRDNTQNMLYLQMNTLRAEDTATYYCAREGHTAAPFDYWGQGTLVTVSSASTTAPSVFPLAPSCGSTSGSTVALACLVSGYFPEPVTVSWNSGSLTSGVHTFPSVLQSSGLYSLSSMVTVPSSRWPSETFTCNVAHPASKTKVDKPVPKRENGRVPRPPDCPKCPAPEMLGGPSVFIFPPKPKDTLLIARTPEVTCVVVDLDPEDPEVQISWFVDGKQMQTAKTQPREEQFNGTYRVVSVLPIGHQDWLKGKQFTCKVNNKALPSPIERTISKARGQAHQPSVYVLPPSREELSKNTVSLTCLIKDFFPPDIDVEWQSNGQQEPESKYRTTPPQLDEDGSYFLYSKLSVDKSRWQRGDTFICAVMHEALHNHYTQKSLSHSPGK | – | 40.1 |

From patent publication US20130344077A1 (VET THERAPEUTICS, published 2013)
